Test results published in the Human Domainome abundance scans (Beltran et al. 2025).
± gives the uncertainty stated by the source.

B1: CD2-associated protein, residues 109 to 169; numbered along this chain, Q9Y5K6 (parent)
chain: KKRQCKVLFEYIPQNEDELELKVGDIIDINEEVEEGWWSGTLNNKLGLFPSNFVKELEVTD

Variants of: B1
Assay: abundance fitness (aPCA) (normalised: wild type 0, dead -1); higher = more abundant; growth selection in yeast, the domain comes from the species named
Details: Homo sapiens

Variant	abundance fitness
G40Q	-1.03 ± 0.43
L46Q	0.022 ± 0.099
L46V	0.047 ± 0.071
L46M	0.006 ± 0.1
L46S	0.113 ± 0.044
L46D	0.034 ± 0.082
L46T	0.151 ± 0.055
L46W	0.013 ± 0.079
E16W	-0.317 ± 0.44
E16P	-0.191 ± 0.16
E16S	0.053 ± 0.14
E16V	-0.182 ± 0.1
E16I	-0.552 ± 0.48
E16L	-0.403 ± 0.15
E16R	0.017 ± 0.14
F53N	-0.109 ± 0.12
F53E	-0.894 ± 0.45
F53P	-0.525 ± 0.2
F53W	-0.56 ± 0.31
F53R	0.007 ± 0.079
F53M	0.057 ± 0.13
F53I	0.149 ± 0.11
F53Q	-0.2 ± 0.13
I27H	-0.614 ± 0.42

Variant	abundance fitness
I27Y	-0.684 ± 0.49
I27A	-0.608 ± 0.18
I27S	-0.641 ± 0.2
S51C	-0.311 ± 0.16
S51T	-0.047 ± 0.11
S51W	-0.093 ± 0.11
S51G	-0.35 ± 0.086
S51M	-0.138 ± 0.11
S51N	-0.769 ± 0.4
T41E	-0.05 ± 0.17
T41G	-0.517 ± 0.15
T41F	-0.274 ± 0.2
T41Y	-0.065 ± 0.16
T41L	-0.318 ± 0.095
E32S	-0.091 ± 0.16
E32W	-0.374 ± 0.31
N15G	-0.19 ± 0.14
N15M	-0.614 ± 0.36
N15A	0.041 ± 0.14
N15L	-0.468 ± 0.1
N15Y	-0.558 ± 0.27
N15H	-0.148 ± 0.16
D28T	-0.209 ± 0.14
D28C	-0.264 ± 0.25

Variant	abundance fitness
D28R	-0.515 ± 0.12
D28H	-0.136 ± 0.25
D28F	-0.335 ± 0.19
D28V	-0.314 ± 0.082
E58T	-0.211 ± 0.18
E58M	0 ± 0.26
E58Q	0.202 ± 0.19
E58I	-0.23 ± 0.26
E58Y	-0.045 ± 0.14
E58D	0.056 ± 0.18
E58C	-0.073 ± 0.12
E58G	0.094 ± 0.11
E58A	-0.305 ± 0.15
K45N	-0.183 ± 0.2
K45S	-0.603 ± 0.15
K45T	-0.458 ± 0.21
K45E	-0.453 ± 0.18
E20M	-0.229 ± 0.24
E20H	-0.214 ± 0.32
E20T	-0.409 ± 0.24
E20G	-0.369 ± 0.19
E20R	-0.125 ± 0.17
E20W	0.012 ± 0.15
T60W	-0.198 ± 0.3

Variant	abundance fitness
T60R	-0.366 ± 0.13
T60L	0.01 ± 0.14
T60K	-0.006 ± 0.39
T60H	0.045 ± 0.16
T60Q	0.039 ± 0.13
T60V	-0.399 ± 0.27
T60M	-0.257 ± 0.18
L42I	-0.242 ± 0.23
L42A	-0.391 ± 0.12
L42N	0.12 ± 0.15
L42Y	-0.01 ± 0.2
L42M	-0.486 ± 0.23
L42V	-0.064 ± 0.1
E34G	-0.067 ± 0.16
E34M	-0.045 ± 0.19
E34I	-0.247 ± 0.21
E34Q	-0.147 ± 0.23
E34Y	-0.126 ± 0.22
W37V	-0.255 ± 0.13
W37S	-0.77 ± 0.24
W37E	0 ± 0.24
W37T	-0.366 ± 0.28
N52H	-0.348 ± 0.21
N52L	-0.287 ± 0.096

Variant	abundance fitness
N52Y	-0.34 ± 0.15
N52E	0.053 ± 0.086
N52F	-0.228 ± 0.24
V54Q	-0.546 ± 0.41
V54S	-0.94 ± 0.36
V54A	-0.52 ± 0.15
V54C	0.125 ± 0.26
V54P	-0.816 ± 0.27
V54M	-0.63 ± 0.23
Y11P	-0.481 ± 0.22
Y11W	-0.318 ± 0.16
Y11K	-0.415 ± 0.37
Y11F	-0.767 ± 0.17
Y11Q	-0.936 ± 0.44
Y11V	-0.715 ± 0.13
G36Q	-0.457 ± 0.26
G36E	0.041 ± 0.23
G36M	-0.201 ± 0.12
G36Y	-0.276 ± 0.076
G36N	-0.004 ± 0.085
G36A	-0.357 ± 0.087
K1T	0.113 ± 0.27
K1Y	-0.172 ± 0.28
K1C	-0.232 ± 0.26

Variant	abundance fitness
K1R	-0.181 ± 0.12
K1F	-0.351 ± 0.27
K1V	-0.367 ± 0.26
V33T	-0.452 ± 0.24
V33G	-0.483 ± 0.43
V33A	-0.132 ± 0.23
V33H	-0.404 ± 0.34
D17F	-0.249 ± 0.47
D17Y	-0.192 ± 0.38
D17R	0.076 ± 0.16
D17A	-0.142 ± 0.1
D17H	-0.343 ± 0.24
D17P	-0.518 ± 0.21
L21F	-0.826 ± 0.4
L21R	-0.861 ± 0.26
L21Q	-0.893 ± 0.42
L21I	-0.4 ± 0.16
G24W	-0.764 ± 0.27
G24R	-0.735 ± 0.25
I26M	-0.369 ± 0.12
I26S	-0.623 ± 0.12
I26R	-0.813 ± 0.14
I26K	-0.624 ± 0.17
I26P	-0.818 ± 0.46

Variant	abundance fitness
I26Q	-0.744 ± 0.25
I26E	-0.484 ± 0.2
I26D	-0.599 ± 0.31
I26T	-0.495 ± 0.13
I26H	-0.391 ± 0.44
S39N	-0.25 ± 0.11
S39T	-0.06 ± 0.084
S39H	-0.085 ± 0.15
S39G	-0.459 ± 0.11
S39V	0.094 ± 0.074
V7Q	0.1 ± 0.16
V7T	-0.9 ± 0.31
V7C	-0.293 ± 0.2
V7L	-0.542 ± 0.14
V7P	-1.05 ± 0.26
V7D	-0.748 ± 0.39
K22R	-0.244 ± 0.16
K22W	-0.448 ± 0.23
K22S	-0.273 ± 0.15
N44V	-0.795 ± 0.25
N44S	-0.261 ± 0.18
N44K	0.019 ± 0.24
N44L	-0.489 ± 0.14
